Starred links: 1 amine or outer side, 2 acyl side, 3 side chain; linkers in the order of their positions; H or OH if unused. Non-standard residues stand in square brackets, D forms with d. *: point of attachment. AC4Abu = α-carboxy-4-aminobutyric acid, O=C(C(CCN[*:1])C(=O)[*:3])[*:2]; Oic = O=C(O)[C@@H]1C[C@@H]2CCCC[C@@H]2N1; Phe(4-Cl) = N[C@@H](Cc1ccc(Cl)cc1)C(=O)O; γGlu = O=C(O)[C@H](CCC(=O)[*:2])N[*:1]; d(β3hF) = N[C@@H](CC(=O)O)Cc1ccccc1; NMeR = CN[C@@H](CCCNC(=N)N)C(=O)O; Palmitoyl = CCCCCCCCCCCCCCCC(=O)*; β3hF = N[C@H](CC(=O)O)Cc1ccccc1; Cha = N[C@@H](CC1CCCCC1)C(=O)O; αMeP = C[C@@]1(C(=O)O)CCCN1; β3hP = O=C(O)C[C@@H]1CCCN1; Nle = CCCC[C@H](N)C(=O)O; AEEA = NCCOCCOCC(=O)O; Aib = CC(C)(N)C(=O)O; Inp = O=C(O)C1CCNCC1; Nip = nipecotic acid; βAla = NCCC(=O)O; Sar = CNCC(=O)O
T1: human APJ receptor (human, UniProt P35414 1-380)
T1 sequence (looked up): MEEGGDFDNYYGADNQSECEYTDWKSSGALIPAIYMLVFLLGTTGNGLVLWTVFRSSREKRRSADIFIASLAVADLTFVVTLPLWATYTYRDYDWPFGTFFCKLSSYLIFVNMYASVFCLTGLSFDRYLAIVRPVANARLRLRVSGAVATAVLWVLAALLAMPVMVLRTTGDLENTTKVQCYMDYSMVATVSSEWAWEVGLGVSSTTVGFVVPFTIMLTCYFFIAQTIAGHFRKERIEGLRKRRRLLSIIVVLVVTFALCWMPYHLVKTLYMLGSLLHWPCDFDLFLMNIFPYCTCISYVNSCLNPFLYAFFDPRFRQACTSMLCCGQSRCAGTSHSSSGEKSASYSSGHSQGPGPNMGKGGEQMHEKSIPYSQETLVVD

T2: rat APJ receptor (rat, UniProt Q9JHG3 1-377)
T2 sequence (looked up): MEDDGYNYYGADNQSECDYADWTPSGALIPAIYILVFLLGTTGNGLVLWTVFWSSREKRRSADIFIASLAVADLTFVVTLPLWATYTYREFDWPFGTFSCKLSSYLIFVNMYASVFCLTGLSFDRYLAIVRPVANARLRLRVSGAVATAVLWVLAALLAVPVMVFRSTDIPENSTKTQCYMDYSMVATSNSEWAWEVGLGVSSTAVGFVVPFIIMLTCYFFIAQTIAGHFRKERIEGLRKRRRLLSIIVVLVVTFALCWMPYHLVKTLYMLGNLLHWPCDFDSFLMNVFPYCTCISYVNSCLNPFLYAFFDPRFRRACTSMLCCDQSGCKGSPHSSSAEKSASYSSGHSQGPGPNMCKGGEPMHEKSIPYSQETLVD


Tests used:
human APJ receptor = molecular target: T1, human APJ receptor; test: cell-based or functional assay
rat APJ receptor = molecular target: T2, rat APJ receptor; test: cell-based or functional assay

Binder	EC50 Human APJ Receptor (human APJ receptor)	EC50 Rat APJ Receptor (rat APJ receptor)
Palmitoyl-[γGlu][AEEA][AEEA][dQ]RP[NMeR][Cha]SHKG[β3hP][Nle][Phe(4-Cl)]-OH (SMILES CCCCCCCCCCCCCCCC(=O)N[C@@H](CCC(=O)NCCOCCOCC(=O)NCCOCCOCC(=O)N[C@H](CCC(N)=O)C(=O)N[C@@H](CCCNC(=N)N)C(=O)N1CCC[C@H]1C(=O)N(C)[C@@H](CCCNC(=N)N)C(=O)N[C@@H](CC1CCCCC1)C(=O)N[C@@H](CO)C(=O)N[C@@H](Cc1c[nH]cn1)C(=O)N[C@@H](CCCCN)C(=O)NCC(=O)N1CCC[C@H]1CC(=O)N[C@@H](CCCC)C(=O)N[C@@H](Cc1ccc(Cl)cc1)C(=O)O)C(=O)O) [SEQ ID NO: 613]	1.66 nM	38.8 nM
Palmitoyl-[AC4Abu][AEEA][AEEA][dQ]RP[NMeR][Cha]SHKG[Oic][Nle]P[d(β3hF)]-OH (SMILES CCCCCCCCCCCCCCCC(=O)NCCC(C(=O)O)C(=O)NCCOCCOCC(=O)NCCOCCOCC(=O)N[C@H](CCC(N)=O)C(=O)N[C@@H](CCCNC(=N)N)C(=O)N1CCC[C@H]1C(=O)N(C)[C@@H](CCCNC(=N)N)C(=O)N[C@@H](CC1CCCCC1)C(=O)N[C@@H](CO)C(=O)N[C@@H](Cc1c[nH]cn1)C(=O)N[C@@H](CCCCN)C(=O)NCC(=O)N1[C@H](C(=O)N[C@@H](CCCC)C(=O)N2CCC[C@H]2C(=O)N[C@@H](CC(=O)O)Cc2ccccc2)C[C@@H]2CCCC[C@@H]21) [SEQ ID NO: 567]	5.15 nM	8.89 nM
Palmitoyl-[AC4Abu][AEEA][AEEA][dQ]RP[NMeR][Cha]SHKG[Oic][Nle]P[β3hF]-OH (SMILES CCCCCCCCCCCCCCCC(=O)NCCC(C(=O)O)C(=O)NCCOCCOCC(=O)NCCOCCOCC(=O)N[C@H](CCC(N)=O)C(=O)N[C@@H](CCCNC(=N)N)C(=O)N1CCC[C@H]1C(=O)N(C)[C@@H](CCCNC(=N)N)C(=O)N[C@@H](CC1CCCCC1)C(=O)N[C@@H](CO)C(=O)N[C@@H](Cc1c[nH]cn1)C(=O)N[C@@H](CCCCN)C(=O)NCC(=O)N1[C@H](C(=O)N[C@@H](CCCC)C(=O)N2CCC[C@H]2C(=O)N[C@H](CC(=O)O)Cc2ccccc2)C[C@@H]2CCCC[C@@H]21) [SEQ ID NO: 575]	3.58 nM	14.1 nM
Palmitoyl-[AC4Abu][AEEA][AEEA][dQ]RP[NMeR][Cha]SHKG[Oic][Nle][Aib][β3hF]-OH (SMILES CCCCCCCCCCCCCCCC(=O)NCCC(C(=O)O)C(=O)NCCOCCOCC(=O)NCCOCCOCC(=O)N[C@H](CCC(N)=O)C(=O)N[C@@H](CCCNC(=N)N)C(=O)N1CCC[C@H]1C(=O)N(C)[C@@H](CCCNC(=N)N)C(=O)N[C@@H](CC1CCCCC1)C(=O)N[C@@H](CO)C(=O)N[C@@H](Cc1c[nH]cn1)C(=O)N[C@@H](CCCCN)C(=O)NCC(=O)N1[C@H](C(=O)N[C@@H](CCCC)C(=O)NC(C)(C)C(=O)N[C@H](CC(=O)O)Cc2ccccc2)C[C@@H]2CCCC[C@@H]21) [SEQ ID NO: 577]	1.78 nM	4.42 nM
Palmitoyl-[AC4Abu][AEEA][AEEA][dQ]RP[NMeR][Cha]SHKG[Oic][Nle][βAla][d(β3hF)]-OH (SMILES CCCCCCCCCCCCCCCC(=O)NCCC(C(=O)O)C(=O)NCCOCCOCC(=O)NCCOCCOCC(=O)N[C@H](CCC(N)=O)C(=O)N[C@@H](CCCNC(=N)N)C(=O)N1CCC[C@H]1C(=O)N(C)[C@@H](CCCNC(=N)N)C(=O)N[C@@H](CC1CCCCC1)C(=O)N[C@@H](CO)C(=O)N[C@@H](Cc1c[nH]cn1)C(=O)N[C@@H](CCCCN)C(=O)NCC(=O)N1[C@H](C(=O)N[C@@H](CCCC)C(=O)NCCC(=O)N[C@@H](CC(=O)O)Cc2ccccc2)C[C@@H]2CCCC[C@@H]21) [SEQ ID NO: 572]	1.1 nM	7.68 nM
Palmitoyl-[γGlu][AEEA][AEEA][dQ]RP[NMeR][Cha]SHK[Sar][Oic][Nle][β3hP][d(β3hF)]-OH (SMILES CCCCCCCCCCCCCCCC(=O)N[C@@H](CCC(=O)NCCOCCOCC(=O)NCCOCCOCC(=O)N[C@H](CCC(N)=O)C(=O)N[C@@H](CCCNC(=N)N)C(=O)N1CCC[C@H]1C(=O)N(C)[C@@H](CCCNC(=N)N)C(=O)N[C@@H](CC1CCCCC1)C(=O)N[C@@H](CO)C(=O)N[C@@H](Cc1c[nH]cn1)C(=O)N[C@@H](CCCCN)C(=O)N(C)CC(=O)N1[C@H](C(=O)N[C@@H](CCCC)C(=O)N2CCC[C@H]2CC(=O)N[C@@H](CC(=O)O)Cc2ccccc2)C[C@@H]2CCCC[C@@H]21)C(=O)O) [SEQ ID NO: 626]	12.2 nM	24.6 nM
Palmitoyl-[AC4Abu][AEEA][AEEA][dQ]RP[NMeR][Cha]SHKG[Oic][Nle][d(β3hF)]-OH (SMILES CCCCCCCCCCCCCCCC(=O)NCCC(C(=O)O)C(=O)NCCOCCOCC(=O)NCCOCCOCC(=O)N[C@H](CCC(N)=O)C(=O)N[C@@H](CCCNC(=N)N)C(=O)N1CCC[C@H]1C(=O)N(C)[C@@H](CCCNC(=N)N)C(=O)N[C@@H](CC1CCCCC1)C(=O)N[C@@H](CO)C(=O)N[C@@H](Cc1c[nH]cn1)C(=O)N[C@@H](CCCCN)C(=O)NCC(=O)N1[C@H](C(=O)N[C@@H](CCCC)C(=O)N[C@@H](CC(=O)O)Cc2ccccc2)C[C@@H]2CCCC[C@@H]21) [SEQ ID NO: 573]	2.17 nM	4.24 nM
Palmitoyl-[AC4Abu][AEEA][AEEA][dQ]RP[NMeR][Cha]SHKG[Oic][Nle][β3hP][d(β3hF)]-OH (SMILES CCCCCCCCCCCCCCCC(=O)NCCC(C(=O)O)C(=O)NCCOCCOCC(=O)NCCOCCOCC(=O)N[C@H](CCC(N)=O)C(=O)N[C@@H](CCCNC(=N)N)C(=O)N1CCC[C@H]1C(=O)N(C)[C@@H](CCCNC(=N)N)C(=O)N[C@@H](CC1CCCCC1)C(=O)N[C@@H](CO)C(=O)N[C@@H](Cc1c[nH]cn1)C(=O)N[C@@H](CCCCN)C(=O)NCC(=O)N1[C@H](C(=O)N[C@@H](CCCC)C(=O)N2CCC[C@H]2CC(=O)N[C@@H](CC(=O)O)Cc2ccccc2)C[C@@H]2CCCC[C@@H]21) [SEQ ID NO: 571]	1.49 nM	4.81 nM
Palmitoyl-[AC4Abu][AEEA][AEEA][dQ]RP[NMeR][Cha]SHKG[Oic][Nle][αMeP][d(β3hF)]-OH (SMILES CCCCCCCCCCCCCCCC(=O)NCCC(C(=O)O)C(=O)NCCOCCOCC(=O)NCCOCCOCC(=O)N[C@H](CCC(N)=O)C(=O)N[C@@H](CCCNC(=N)N)C(=O)N1CCC[C@H]1C(=O)N(C)[C@@H](CCCNC(=N)N)C(=O)N[C@@H](CC1CCCCC1)C(=O)N[C@@H](CO)C(=O)N[C@@H](Cc1c[nH]cn1)C(=O)N[C@@H](CCCCN)C(=O)NCC(=O)N1[C@H](C(=O)N[C@@H](CCCC)C(=O)N2CCC[C@@]2(C)C(=O)N[C@@H](CC(=O)O)Cc2ccccc2)C[C@@H]2CCCC[C@@H]21) [SEQ ID NO: 570]	8.01 nM	19.8 nM
Palmitoyl-[AC4Abu][AEEA][AEEA][dQ]RP[NMeR][Cha]SHKG[Oic][Nle][Aib][d(β3hF)]-OH (SMILES CCCCCCCCCCCCCCCC(=O)NCCC(C(=O)O)C(=O)NCCOCCOCC(=O)NCCOCCOCC(=O)N[C@H](CCC(N)=O)C(=O)N[C@@H](CCCNC(=N)N)C(=O)N1CCC[C@H]1C(=O)N(C)[C@@H](CCCNC(=N)N)C(=O)N[C@@H](CC1CCCCC1)C(=O)N[C@@H](CO)C(=O)N[C@@H](Cc1c[nH]cn1)C(=O)N[C@@H](CCCCN)C(=O)NCC(=O)N1[C@H](C(=O)N[C@@H](CCCC)C(=O)NC(C)(C)C(=O)N[C@@H](CC(=O)O)Cc2ccccc2)C[C@@H]2CCCC[C@@H]21) [SEQ ID NO: 569]	1 nM	0.991 nM
Palmitoyl-[AC4Abu][AEEA][AEEA][dQ]RP[NMeR][Cha]SHKG[Inp][Nle][Aib][Phe(4-Cl)]-OH (SMILES CCCCCCCCCCCCCCCC(=O)NCCC(C(=O)O)C(=O)NCCOCCOCC(=O)NCCOCCOCC(=O)N[C@H](CCC(N)=O)C(=O)N[C@@H](CCCNC(=N)N)C(=O)N1CCC[C@H]1C(=O)N(C)[C@@H](CCCNC(=N)N)C(=O)N[C@@H](CC1CCCCC1)C(=O)N[C@@H](CO)C(=O)N[C@@H](Cc1c[nH]cn1)C(=O)N[C@@H](CCCCN)C(=O)NCC(=O)N1CCC(C(=O)N[C@@H](CCCC)C(=O)NC(C)(C)C(=O)N[C@@H](Cc2ccc(Cl)cc2)C(=O)O)CC1) [SEQ ID NO: 583]	5.96 nM	49.2 nM
Palmitoyl-[AC4Abu][AEEA][AEEA][dQ]RP[NMeR][Cha]SHKG[Nip][Nle][Aib][Phe(4-Cl)]-OH [SEQ ID NO: 582]	8.5 nM	29.3 nM

Source: patent publication US10941182 (Amgen, dated 2021)
